Source: PMC8939767 (Science Translational Medicine, 2022)
Where no end group is shown, it is not given here. The star is where a group is joined. Biotin = O=C1N[C@H]2[C@H](CS[C@H]2CCCCC(=O)*)N1

Experiments:
[1] = molecular target: T1, HCoV-HKU1 spike protein, full length, expressed on 293T cells (HCoV-HKU1, isolate N1 by the GenBank …, UniProt Q5MQD0); test: flow cytometry on cells; conditions: one partner purified
T1 construct: source: HEK293T, transfected, on the cell surface

[2] = molecular target: T2, HCoV-HKU1 S2 95th 15-mer stem peptide (residues 1231-1245), biotinylated (HCoV-HKU1 isolate N1 (AAT98580.1), UniProt Q5MQD0); test: ELISA; […], mAb in 1% BSA/PBST, […]; conditions: both partners purified
T2 construct: also called 95th 15-mer peptide; HCoV-HKU1 95th 15-mer stem peptide; source: synthetic peptide (A&A Labs, Synthetic Biomolecules)
T2 chain: Biotin-LSDFESELSHWFKNQ

[3] = molecular target: T3, HCoV-HKU1 soluble spike ectodomain protein (HCoV-HKU1, isolate N1 by the GenBank …, UniProt Q5MQD0); test: BLI; conditions: both partners purified
T3 construct: also called HCoV-HKU1 soluble spike protein; source: FreeStyle293-F, transfected, purified (Ni-NTA, SEC)

[4] = molecular target: T4, HCoV-HKU1 25-residue S2 stem peptide (residues 1226-1250) (HCoV-HKU1 isolate N1 (AAT98580.1), UniProt Q5MQD0, biotin on the N-terminus); test: BLI; conditions: both partners purified
T4 construct: also called 25-mer (red); 25-mer S2 peptide from HCoV-HKU1; source: synthetic peptide
T4 chain: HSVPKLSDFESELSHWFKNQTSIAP

[5] = molecular target: T5, HCoV-HKU1 stem peptide variant, 20-mer with 5 additional residues at the C-terminus (HCoV-HKU1 isolate N1 (AAT98580.1), UniProt Q5MQD0, biotin on the N-terminus); test: BLI; conditions: both partners purified
T5 construct: also called 20-mer (orange); source: synthetic peptide
T5 chain: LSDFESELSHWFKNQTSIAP

[6] = molecular target: T6, HCoV-HKU1 stem peptide variant, 20-mer with 5 additional residues at the N-terminus (HCoV-HKU1 isolate N1 (AAT98580.1), UniProt Q5MQD0, biotin on the N-terminus); test: BLI; conditions: both partners purified
T6 construct: also called 20-mer (brick red); source: synthetic peptide
T6 chain: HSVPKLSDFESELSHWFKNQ

[7] = molecular target: T7, SARS-CoV-2 S2 stem-helix 25-mer peptide, N-terminal biotinylated (wild type) (SARS-CoV-2, UniProt P0DTC2, biotin on the N-terminus); test: BLI; […], Octet buffer (PBS plus 0.1% Tween-20), association 120 s, […]; conditions: both partners purified
T7 construct: also called SARS-CoV-2 stem-helix peptide; SARS-CoV-2 stem peptide (25mer); source: synthetic peptide
T7 chain: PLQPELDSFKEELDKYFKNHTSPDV

[8] = molecular target: T8, SARS-CoV-2 25-mer S2 stem peptide (as used for the crystal and for competition of neutralization) (SARS-CoV-2, UniProt P0DTC2); test: crystal structure; conditions: both partners purified
T8 construct: also called SARS-CoV-2 S2 peptide; SARS-CoV-2 stem peptide; source: synthetic peptide
T8 chain: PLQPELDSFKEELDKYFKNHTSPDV

Measured: binding result

T1 sequence (Q5MQD0 13-1356): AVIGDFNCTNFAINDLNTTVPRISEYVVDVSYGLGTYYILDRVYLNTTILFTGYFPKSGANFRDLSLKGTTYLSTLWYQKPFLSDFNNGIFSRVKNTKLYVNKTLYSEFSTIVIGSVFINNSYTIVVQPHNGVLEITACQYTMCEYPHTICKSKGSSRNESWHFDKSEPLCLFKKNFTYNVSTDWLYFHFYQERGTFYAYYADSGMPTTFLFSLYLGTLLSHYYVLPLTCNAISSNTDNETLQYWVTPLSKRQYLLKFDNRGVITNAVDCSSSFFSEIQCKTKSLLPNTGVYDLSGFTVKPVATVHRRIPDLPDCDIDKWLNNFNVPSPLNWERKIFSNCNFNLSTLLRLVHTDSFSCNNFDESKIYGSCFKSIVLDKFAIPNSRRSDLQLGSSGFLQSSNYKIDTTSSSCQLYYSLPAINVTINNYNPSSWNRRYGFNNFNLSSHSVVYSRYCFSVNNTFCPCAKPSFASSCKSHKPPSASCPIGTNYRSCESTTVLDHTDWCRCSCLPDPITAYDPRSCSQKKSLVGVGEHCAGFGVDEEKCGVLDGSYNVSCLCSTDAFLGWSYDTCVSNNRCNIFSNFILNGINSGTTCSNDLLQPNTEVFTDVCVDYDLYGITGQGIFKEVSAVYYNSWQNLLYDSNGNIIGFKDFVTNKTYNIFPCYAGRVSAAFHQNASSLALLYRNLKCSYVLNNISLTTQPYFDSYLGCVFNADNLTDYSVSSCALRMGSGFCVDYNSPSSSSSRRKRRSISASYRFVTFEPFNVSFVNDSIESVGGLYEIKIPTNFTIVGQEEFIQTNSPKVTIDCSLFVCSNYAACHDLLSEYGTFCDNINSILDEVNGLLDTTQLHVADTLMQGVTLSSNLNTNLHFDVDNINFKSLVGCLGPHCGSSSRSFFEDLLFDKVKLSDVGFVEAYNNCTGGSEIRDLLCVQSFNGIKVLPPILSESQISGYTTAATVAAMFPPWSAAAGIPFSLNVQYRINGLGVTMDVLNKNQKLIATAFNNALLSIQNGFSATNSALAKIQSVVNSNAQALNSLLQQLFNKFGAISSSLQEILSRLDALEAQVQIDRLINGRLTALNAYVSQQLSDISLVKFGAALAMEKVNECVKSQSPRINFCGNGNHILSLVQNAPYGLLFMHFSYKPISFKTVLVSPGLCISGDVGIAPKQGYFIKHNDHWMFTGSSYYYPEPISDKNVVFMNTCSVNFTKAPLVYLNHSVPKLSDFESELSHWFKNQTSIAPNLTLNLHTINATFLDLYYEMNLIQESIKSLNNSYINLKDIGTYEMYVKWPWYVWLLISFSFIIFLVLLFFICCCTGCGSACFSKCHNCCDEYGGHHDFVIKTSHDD

B1: CC40.8 broadly neutralizing antibody (IgG) (antibody, V domains shown)
VH: EVQLLESGGGLVQPGGSLRLSCAASGFTFSSYVMTWARQAPGKGLEWVSAISGTGYTYYADSVKGRFTVSRDNSKNTLFLQMSSLRAEDTAVYYCAITMAPVVWGQGTTVTVSS
VL: SYELTQPPSVSVSPGQTARITCSGDALPKRYAYWYQQKSGQAPILVIYEDKKRPSGIPERLSGSKSGTVATLTISGAQVEDEADYYCYSTDSSGNHAVFGGGTQLTVL
notes: also called CC40.8 bnAb; CC40.8 mAb
not listed: [8]
binds: all other assays above

B2: CC40.8 Fab (Fab, V domains shown)
VH: EVQLLESGGGLVQPGGSLRLSCAASGFTFSSYVMTWARQAPGKGLEWVSAISGTGYTYYADSVKGRFTVSRDNSKNTLFLQMSSLRAEDTAVYYCAITMAPVVWGQGTTVTVSS
VL: SYELTQPPSVSVSPGQTARITCSGDALPKRYAYWYQQKSGQAPILVIYEDKKRPSGIPERLSGSKSGTVATLTISGAQVEDEADYYCYSTDSSGNHAVFGGGTQLTVL
notes: also called CC40.8 antibody Fab fragment
binds: [8]
